Reference: patent publication US20260055188A1 (SHENGHE CHINA BIOPHARMACEUTICAL, published 2026)
Where two headings read alike, the source gives them in different places.

T1: Human-TNFR2-His (manufacturer: SINO, CAT: 10417-H08H) (human, UniProt P20333 23-257)
T1 construct: Bought protein; also called human TNFR2 protein; TNFR2 protein; not shown: His tag
T1 sequence (looked up): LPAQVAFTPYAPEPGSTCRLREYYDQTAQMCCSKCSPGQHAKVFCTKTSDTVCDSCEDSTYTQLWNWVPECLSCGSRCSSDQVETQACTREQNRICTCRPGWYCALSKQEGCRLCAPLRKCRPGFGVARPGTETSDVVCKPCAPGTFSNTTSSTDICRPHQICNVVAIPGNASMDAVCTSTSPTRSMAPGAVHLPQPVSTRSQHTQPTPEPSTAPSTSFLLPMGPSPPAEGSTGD

T2: human CD24 on MCF-7 tumor cells (human, UniProt P25063 27-59)
T2 construct: whole, on cells; also called CD24 protein; MCF-7 tumor cells with high expression of human CD24
T2 chain (looked up): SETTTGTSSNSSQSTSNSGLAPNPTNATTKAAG

T3: Human-B7H3 His (manufacturer: Acro, CAT: TB73-H52E2) (human, UniProt Q5ZPR3-2 29-245)
T3 construct: also called human B7H3 protein; B7H3 protein; not shown: His tag
T3 sequence (looked up): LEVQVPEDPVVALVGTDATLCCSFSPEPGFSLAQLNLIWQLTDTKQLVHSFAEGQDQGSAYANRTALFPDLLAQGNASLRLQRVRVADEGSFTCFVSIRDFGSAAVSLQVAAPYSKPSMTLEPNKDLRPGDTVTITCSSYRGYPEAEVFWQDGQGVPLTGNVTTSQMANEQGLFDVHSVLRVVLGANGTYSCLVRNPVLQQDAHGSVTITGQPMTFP

T4: Human-B7H3 Fc (manufacturer: Acro, CAT: B73-H5253) (human, UniProt Q5ZPR3-2 29-245)
T4 construct: Bought protein; not shown: Fc
T4 sequence (looked up): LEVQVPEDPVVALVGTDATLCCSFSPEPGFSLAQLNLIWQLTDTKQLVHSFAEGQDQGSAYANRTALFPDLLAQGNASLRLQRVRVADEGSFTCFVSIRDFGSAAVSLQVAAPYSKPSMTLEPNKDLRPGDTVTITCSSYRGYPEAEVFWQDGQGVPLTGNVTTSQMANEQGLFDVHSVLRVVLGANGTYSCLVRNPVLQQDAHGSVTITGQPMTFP


Assays:
[1] = molecular target: T1, Human-TNFR2-His (manufacturer: SINO, …); experiment: BLI, antibody on AHC sensor, 100 nM human-TNFR2-His in solution
Protocol: The AHC sensor was soaked in 0.02% PBST (0.02% Tween 20, pH 7.4, 1×PBS) as a buffer for 600 s to remove the sucrose covering the sensor surface. The AHC sensor was equilibrated with 0.02% PBST (0.02% Tween 20, pH 7.4, 1×PBS) as a buffer for 60 s, the antibody in the sample plate was solidified for 300 s, and the secondary equilibration buffer was used for 180 s. 100 nM human-TNFR2-His (manufacturer: SINO, CAT: 10417-H08H, LOT: LC12SE2902) protein was bound to the antibody for 300 s and then dissociated for 600 s. After dissociation, 10 mM glycine (pH 2.0) was used as a regeneration buffer for 30 s. The sensor was regenerated with 10 mM glycine (pH 2.0).

[2] = molecular target: T1, Human-TNFR2-His (manufacturer: SINO, …); experiment: ELISA: Human-TNFR2-His coated (0.3 µg/mL), antibody titrated, goat anti-human IgG Fc detection, OD450 (Example 10)
Protocol: (§1) Human-TNFR2-His (manufacturer: SINO, CAT: 10417-H08H, LOT: LC12SE2902) was diluted to 0.3 μg/mL with a coating solution (1×PBS, pH7.4), and coated into a 96-well ELISA plate at 100 μL/well overnight at 4° C. The coating solution was poured off. Each well was washed with 1×PBST at 300 μL, washed 4 times with a plate washer, and patted dry on a flat paper. It was blocked with 3% skim milk powder at 300 μL/well, and incubated at 37° C. for 1 h. The blocking solution was poured off, washed 4 times with a plate washer, and patted dry on a flat paper. Negative control and positive control were set up. […] The positive control and antibody were diluted to 10 μg/mL with 3% skim milk powder as the starting concentration, and then diluted by 3-fold gradient (11 gradients in total). A blank well was set up and only the diluent was added. It was incubated at 37° C. for 1 h at 100 μL/well. The liquid in the well was discarded, washed 4 times with a plate washer, and patted dry on a flat paper. Goat anti-human IgG Fc was diluted with 3% skim milk powder at 1:20000, and incubated at 37° C. for 1 h at 100 μL/well. It was washed 6 times with a plate washer, and patted dry on a flat paper. TMB color developing solution was added at 100 μL/well, and wrapped with aluminum foil. Color development was performed at 37° C. in the dark for 8 min. […] Readings were taken at 450 nm on an ELISA reader.

[3] = molecular target: T1, Human-TNFR2-His (manufacturer: SINO, …); experiment: as above; remark: listed apart in the source
Protocol: as §1

[4] = molecular target: T2, human CD24 on MCF-7 tumor cells; experiment: flow cytometry on MCF-7 cells, 150 nM antibody, anti-human IgG Fc detection
Protocol: 100 μL of dilution was added to the blank control group, and 100 μL of fluorescent secondary antibody dilution was added to the rest of the sample groups respectively. After incubation for 0.5 h at room temperature and 4° C. protected from light, PBS was added to wash and centrifuged (3000 rpm, 3 min) twice. After discarding the supernatant, 80 μL of the dilution was added and resuspended.

[5] = molecular target: T3, Human-B7H3 His (manufacturer: Acro, …); experiment: BLI, antibody on AHC sensor, 100 nM His-tagged protein (Acro TB73-H52E2) in solution
[6] = molecular target: T4, Human-B7H3 Fc (manufacturer: Acro, CAT: …); experiment: bridging ELISA: Human-B7H3 Fc coated (0.5 µg/mL), antibody titrated, then Human-TNFR2-His (0.5 µg/mL), HRP-labeled anti-His detection, OD450 (Example 4); half-maximal concentration of the bridging signal
Protocol: Human-B7H3 Fc (manufacturer: Acro, CAT: B73-H5253, LOT: 2053b-201XF1-UD) was diluted to 0.5 μg/mL with a coating solution (1×PBS, pH7.4) and coated into a 96-well ELISA plate at 100 μL/well at 4° C. overnight. The coating solution was poured off. Each well was washed with 1×PBST at 300 μL, washed 4 times with a plate washer, and patted dry on a flat paper. It was blocked with 3% skim milk powder at 300 μL/well, and incubated at 37° C. for 1 h. The blocking solution was poured off, washed 4 times with a plate washer, and patted dry on a flat paper. […] Starting at 300 nM, which was used as the initial concentration for 3-fold dilution, a total of 8 gradients were diluted, and a blank well was set up, and only diluent was added. It was incubated at 37° C. for 1 h at 100 μL/well. The liquid in the well was discarded, washed 4 times with a plate washer, and patted dry on a flat paper. Human-TNFR2-His (manufacturer: Sino, CAT: 10417-H08H, LOT: LC12SE2902) was diluted to 0.5 μg/mL, 100 μL was added to each well, and incubated at room temperature for 1 h. The plate was washed 3 times with PBST, and then the HRP-labeled his antibody was diluted with sample diluent at 1:10000, 100 μL was added to each well, and incubated at room temperature for 1 h. It was washed 6 times with a plate washer, and patted dry on a flat paper. […] Readings were taken at 450 nm on an ELISA reader.

[7] = molecular target: T3, Human-B7H3 His (manufacturer: Acro, …); experiment: ELISA: Human-B7H3 His coated (0.3 µg/mL), antibody titrated, goat anti-human IgG Fc detection, OD450 (Example 3)
Protocol: Human-B7H3 His (manufacturer: Acro, CAT: TB73-H52E2, LOT: 2052-21AXF1-YS) was diluted to 0.3 μg/mL with a coating solution (1×PBS, pH7.4), and coated into a 96-well ELISA plate at 100 μL/well overnight at 4° C. The coating solution was poured off. Each well was washed with 1×PBST at 300 μL, washed 4 times with a plate washer, and patted dry on a flat paper. It was blocked with 3% skim milk powder at 300 μL/well, and incubated at 37° C. for 1 h. The blocking solution was poured off, washed 4 times with a plate washer, and patted dry on a flat paper. Negative control and positive control were set up. […] The variable region of the antibody sequence of the positive control consists of SEQ ID NO: 1 and SEQ ID NO: 5, with the constant region of human IgG1 added (SEQ ID NO: 85 and SEQ ID NO: 86). The positive control and antibody were diluted to 10 μg/mL with 3% skim milk powder as the starting concentration, and then diluted by 3-fold gradient (11 gradients in total). A blank well was set up and only the diluent was added. It was incubated at 37° C. for 1 h at 100 μL/well. The liquid in the well was discarded, washed 4 times with a plate washer, and patted dry on a flat paper. Goat anti-human IgG Fc was diluted with 3% skim milk powder at 1:20000, and incubated at 37° C. for 1 h at 100 μL/well. It was washed 6 times with a plate washer, and patted dry on a flat paper. TMB color developing solution was added at 100 μL/well, and wrapped with aluminum foil. Color development was performed at 37° C. in the dark for 8 min. Termination solution 1M HCl was added to terminate the color development reaction at 100 μL/well. Readings were taken at 450 nm on an ELISA reader.

Row | Kd [1] [nM] | koff [1] [s⁻¹] | kon [1] [M⁻¹ s⁻¹] | EC50 (read off the curve) [2] [nM] | EC50 (read off the curve) [3] [nM] | E1 Mean PE-A [4] | Kd [5] [nM] | koff [5] [s⁻¹] | kon [5] [M⁻¹ s⁻¹] | EC50 (read off the curve) [6] [nM] | EC50 (read off the curve) [7] [nM] | Binder
1 | 0.324 | 0.000127 | 391000 | ~0.03 | ~0.03 |  |  |  |  |  |  | anti-TNFR2 control antibody (variable region SEQ ID NO: 83 and SEQ ID NO: 84, constant region of human IgG1 SEQ ID NO: 85 and SEQ ID NO: 86) (antibody, V domains shown, also called Positive control 1) VH: EVQLVQSGAEVKKPGATVKISCKVSGYSITDYLLHWVQQAPGKGLEWMGWIDPEDAKTKYGQKFQSRVTITADTSTDTAYMELSSLRSEDTAVYYCAANSGTGTMDAWGQGTLVTVSS VL: DIVMTQSPATLSVSPGERATLSCKASQNVGSNVDWYQQKPGQSPRVLIYKASIRYTGIPARFSGSGSGTEFTLTISILQSEDFAVYFCMQSKSYPITFGQGTKLEIKR
2 |  |  |  |  |  | 4.45e+06 |  |  |  |  |  | anti-CD24 control antibody (variable region SEQ ID NO: 9 and SEQ ID NO: 13, constant region of human IgG1 SEQ ID NO: 85 and SEQ ID NO: 86) (antibody, V domains shown) VH: EVQLQESGPGLVKPSQTLSLTCTVSGYSITSGYTWHWIRQFPGNKLEWIGHIQYTGNTKYNPSLESRITISRDTSKNQFSLKLSSVTAADTATYYCARGSTNSNDYWGQGTLVTVSS VL: DIVMTQSPSSLAVSLGERATINCKSSQSLLYSNDQKNYLAWYQQKPGQSPKLLIYWASTRESGVPDRFSGSGSGTDFTLTISSLQAEDVAVYYCQQYFIYPLTFGGGTKLELKR
3 | 2.89 | 0.000665 | 230000 |  |  |  | 159 | 0.00174 | 10900 | ~0.5 | ~0.3 | TB-C1 (bispecific antibody, human IgG1, kappa, also called antibody TB-C1) light: DIVMTQSPATLSVTPGDRVSLSCRASQSISDYLHWYQQKSHESPRLLIKYASQSISGIPSRFSGSGSGSDFTLSINSVEPEDVGVYYCQNGHSFPLTFGAGTKLELKRTVAAPSVFIFPPSDEQLKSGTASVVCLLNNFYPREAKVQWKVDNALQSGNSQESVTEQDSKDSTYSLSSTLTLSKADYEKHKVYACEVTHQGLSSPVTKSFNRGEC heavy: not shown
